Laboratory results: patent publication US20220306744A1 (CRESCENDO BIOLOGICS, published 2022)

T1: mouse PD-1 protein (R&D Systems cat no. 1021-PD) (mouse, UniProt Q02242 25-167)
T1 construct: Bought protein
T1 sequence (looked up): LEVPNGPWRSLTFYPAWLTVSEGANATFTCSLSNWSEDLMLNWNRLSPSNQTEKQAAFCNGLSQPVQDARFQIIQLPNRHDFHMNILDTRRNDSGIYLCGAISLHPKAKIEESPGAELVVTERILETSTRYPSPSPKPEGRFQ


Tests used:
[1] = target: T2, human PD-1 expressed on cells (CHO TREX human PD1 cell line, full-length human PD-1 sequence) (human, UniProt Q15116 21-288); test: flow cytometry, PHA-stimulated human CD4+ T cells, Donor 3
T2 construct: Also used for human PD-1 on Jurkat reporter cells, on PathHunter cells and on PHA-stimulated human CD4+ T cells; also called CHO human PD1 cells; CHO human PD-1 cells
Method: (§1) Binding of monovalent single domain antibodies and multivalent binding agents to T cells was measured using flow cytometry. Peripheral blood mononuclear cells (PBMCs) were isolated from human blood by density gradient centrifugation then CD4+ T cells purified using a negative selection isolation kit according to the manufacturer's protocol (Miltenyi Biotech cat no 130-096-533). T-cells were stimulated with 2.5 μg/ml PHA for 3 days in RPMI media supplemented with 10% FBS, 2 mM Glutamine, 1× Pen/Strep. Cells were transferred into 96 well plates (75000 per well), blocked for 10 mins with PBS/1% BSA, then incubated with serially diluted VH in staining buffer (PBS/1% BSA) for 1 hour at 4° C. Cells were washed with staining buffer by centrifugation then incubated with 10 μg/ml biotinylated Anti His antibody for 40 mins at 4° C. Cells were washed again then stained with Streptavidin Alexa Fluor-488 (10 μg/ml) and 1:5000 diluted Live Dead near IR stain (Molecular Probes cat no. L10119) for 30 mins at 4° C. After further washing cells were fixed and fluorescence measured by flow cytometry.

[2] = target: T2, human PD-1 expressed on cells (CHO TREX …); test: epitope competition assay on CHO human PD1 cells (labelled VH not specified) after 1 day in human serum
Method: Serum stability of VH and multivalent VH constructs was assessed by measurement of their activity following incubation for 0, 1, 4 or 7 days both in mouse (Sigma M5905) and human serum. […] Minimal loss of activity was observed following incubation with serum.

[3] = target: T2, human PD-1 expressed on cells (CHO TREX …); test: FMAT epitope competition, CHO human PD1 cells; competitor Epitope 1 (1.1-Strep tagged protein)
Method: (§2) For the epitope competition assay reagents were prepared in FMAT assay buffer.
(§3) Multivalent molecules 1.92b-4GS-1.39a and 1.92b-4gs-1.62a were tested in the epitope competition assay as described above. 1.92b-4GS-1.39a and 1.92b-4gs-1.62 did cross compete with 1.1-Strap tagged and 2.1-Strap tagged proteins for binding to the cells.
(§4) Plates were incubated for a minimum of 1.5 hours at room temperature then fluorescence measured in the FL2 (502 nm-537 nm) and FL5 (677-800 nm) channels on the Mirrorball plate reader (TTP) following excitation at 488 nm and 640 nm. Data was expressed as a % of the total binding control (i.e. % control) after subtraction of the background signal determined from the non-specific binding control wells.

[4] = target: T1, mouse PD-1 protein (R&D Systems cat no. …); test: HTRF binding assay, 2 nM mouse PD1
Method: (§5) Purified VH were tested for their ability to bind to human PD1 (R&D Systems cat no. 1086-PD), cynomolgus PD-1 (Acro Biosystems cat no. PD-1-C5254) and mouse PD1 (R&D Systems cat no. 1021-PD) in an HTRF Binding assay format. All reagents and serially diluted VH were prepared in assay buffer containing PBS, 0.1% BSA and 0.4M Potassium Fluoride. Samples or assay buffer (non-specific binding) were incubated with 2 nM human/cynomolgus or mouse PD1, 1 nM Anti human-Fc Cryptate PAb (Cisbio cat. no. 61HFCKLB) and 30 nM anti His-D2 (CisBio cat no 61HISDLA) in black 384-shallow well assay plates for a minimum of 3 hours at room temperature. Time-resolved fluorescent emission at 620 nm and 665 nm was measured following excitation at 337 nm on the BMG PHERAstar plate reader. The HTRF ratio were calculated ((665 nm emission/620 nm emission)*10000) and the data corrected for (non-specific binding) to give the specific binding signal.

[5] = target: T2, human PD-1 expressed on cells (CHO TREX …); test: flow cytometry, PHA-stimulated human CD4+ T cells, Donor 2
Method: as §1

[6] = target: T2, human PD-1 expressed on cells (CHO TREX …); test: FMAT epitope competition, CHO human PD1 cells; competitor Epitope 2 (2.1-Strep tagged protein)
Method: as §2, §3, §4

[7] = target: T2, human PD-1 expressed on cells (CHO TREX …); test: FMAT binding to CHO human PD-1 cells
[8] = target: T2, human PD-1 expressed on cells (CHO TREX …); test: epitope competition assay on CHO human PD1 cells (labelled VH 1.51a, 1.57b or 1.1a, not specified) after 0 days in human serum
[9] = target: T2, human PD-1 expressed on cells (CHO TREX …); test: flow cytometry, PHA-stimulated human CD4+ T cells, Donor 4
Method: as §1

[10] = target: T3, recombinant human PD-1 Fc chimera (human, UniProt Q15116 25-167); test: HTRF binding assay, 2 nM recombinant PD1, anti His-D2 and anti human-Fc cryptate
T3 construct: Bought protein (R&D 1086-PD in the HTRF assay); also called human PD-1-hu Fc; huPD-1Fc; not shown: human Fc
Method: as §5

[11] = target: T4, cynomolgus PD-1 recombinant protein (Acro Biosystems cat no. PD-1-C5254) (cynomolgus); test: as above
T4 construct: Bought protein; also called cyno PD1
Method: as §5

[12] = target: T2, human PD-1 expressed on cells (CHO TREX …); test: epitope competition assay on CHO human PD1 cells (labelled VH not specified) after 0 days in human serum

T2 sequence (Q15116 21-288): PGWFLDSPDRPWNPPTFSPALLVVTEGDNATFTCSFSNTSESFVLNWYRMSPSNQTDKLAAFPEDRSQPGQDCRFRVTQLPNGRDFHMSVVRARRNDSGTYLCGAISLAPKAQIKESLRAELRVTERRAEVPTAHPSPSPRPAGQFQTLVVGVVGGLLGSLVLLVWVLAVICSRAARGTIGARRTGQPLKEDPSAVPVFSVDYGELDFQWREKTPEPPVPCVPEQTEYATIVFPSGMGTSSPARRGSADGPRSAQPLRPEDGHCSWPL
T3 sequence (Q15116 25-167 limits assumed, change not shown): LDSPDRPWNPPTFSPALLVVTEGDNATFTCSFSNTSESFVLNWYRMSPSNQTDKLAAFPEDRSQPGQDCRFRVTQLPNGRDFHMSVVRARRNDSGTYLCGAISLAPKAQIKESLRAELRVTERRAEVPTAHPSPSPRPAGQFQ

Row | EC50 [1] [nM] | IC50 [2] [nM] | EC50 [3] [nM] | binding result [4] | EC50 [5] [nM] | EC50 [6] [nM] | EC50 [7] [nM] | IC50 [8] [nM] | EC50 [9] [nM] | EC50 [10] [nM] | EC50 [11] [nM] | IC50 [12] [nM] | Binder
1 | 0.6 | 0.9 | 1.1 | no binding | 0.6 | 1.2 | 0.2 | 0.9 | 0.5 | 2.1 | 3.7 |  | 1.92b-4GS-1.39a (other, Biparatopic VH-linker-VH; built from its parts here because it is not clear whether 1112 is the protein or the nucleic acid) EVQLVESGGGLVKPGGSLRLSCAASGFTFSDESMTWMRQAPGKGLEWVSYISSGGGVKFYADSVKGRFTISRDNAKNSLYLQMNSLRAEDTAVYYCAREAPLRLGESPHDAFDISGQGTMVTVSSGGGGSGGGGSGGGGSGGGGSEVQLVESGGGLVQPGRSLRLSCAASGFTFDDYALHWVRQAPGKDLEWVSGISWNGGSYGYADSVKGRFTISRDNAKNSLYLQMNSLRAEDTALYYCVREKGPGLTGSTADYYGLDAWGQGTMVTVSS
2 | 0.6 | 1.3 | 1 | no binding | 0.4 | 1 | 0.2 |  | 0.3 | 2.1 | 3.9 | 1.4 | 1.92b-4GS-1.62a (other, Biparatopic VH-linker-VH; also called 1.92-4GS-1.62a; 1.92b-4gs-2.12a) EVQLVESGGGLVKPGGSLRLSCAASGFTFSDESMTWMRQAPGKGLEWVSYISSGGGVKFYADSVKGRFTISRDNAKNSLYLQMNSLRAEDTAVYYCAREAPLRLGESPHDAFDISGQGTMVTVSSGGGGSGGGGSGGGGSGGGGSEVQLVESGGGVVRPGGSLRLSCAASGFTFDDYAMSWVRQAPGKGLEWVSGITWNAGSTGYADSVKGRFTISRDNAKNSLYLQMNSLRAEDTALYYCVRDKYSYAWSYDDFDIWGQGTMVTVSS
